Laboratory results published in PMC9674701, “Cancer cell survival depends on collagen uptake into tumor-associated stroma” (Nature Communications, 2022).

Target: FITC-labeled bovine type I Collagen (Chondrex 4001) (bovine, UniProt P02453 162-1217; P02465 80-1117, FITC label (FITC-Col labeled at a 1:1 molar ratio); labelled residues not stated | FITC label (FITC-Col labeled at a 1:1 molar ratio); labelled residues not stated)
Assay: cell-based or functional assay

Chain of FITC-labeled bovine type I Collagen (Chondrex 4001) (P02453 162-1217, chain 1 of 2): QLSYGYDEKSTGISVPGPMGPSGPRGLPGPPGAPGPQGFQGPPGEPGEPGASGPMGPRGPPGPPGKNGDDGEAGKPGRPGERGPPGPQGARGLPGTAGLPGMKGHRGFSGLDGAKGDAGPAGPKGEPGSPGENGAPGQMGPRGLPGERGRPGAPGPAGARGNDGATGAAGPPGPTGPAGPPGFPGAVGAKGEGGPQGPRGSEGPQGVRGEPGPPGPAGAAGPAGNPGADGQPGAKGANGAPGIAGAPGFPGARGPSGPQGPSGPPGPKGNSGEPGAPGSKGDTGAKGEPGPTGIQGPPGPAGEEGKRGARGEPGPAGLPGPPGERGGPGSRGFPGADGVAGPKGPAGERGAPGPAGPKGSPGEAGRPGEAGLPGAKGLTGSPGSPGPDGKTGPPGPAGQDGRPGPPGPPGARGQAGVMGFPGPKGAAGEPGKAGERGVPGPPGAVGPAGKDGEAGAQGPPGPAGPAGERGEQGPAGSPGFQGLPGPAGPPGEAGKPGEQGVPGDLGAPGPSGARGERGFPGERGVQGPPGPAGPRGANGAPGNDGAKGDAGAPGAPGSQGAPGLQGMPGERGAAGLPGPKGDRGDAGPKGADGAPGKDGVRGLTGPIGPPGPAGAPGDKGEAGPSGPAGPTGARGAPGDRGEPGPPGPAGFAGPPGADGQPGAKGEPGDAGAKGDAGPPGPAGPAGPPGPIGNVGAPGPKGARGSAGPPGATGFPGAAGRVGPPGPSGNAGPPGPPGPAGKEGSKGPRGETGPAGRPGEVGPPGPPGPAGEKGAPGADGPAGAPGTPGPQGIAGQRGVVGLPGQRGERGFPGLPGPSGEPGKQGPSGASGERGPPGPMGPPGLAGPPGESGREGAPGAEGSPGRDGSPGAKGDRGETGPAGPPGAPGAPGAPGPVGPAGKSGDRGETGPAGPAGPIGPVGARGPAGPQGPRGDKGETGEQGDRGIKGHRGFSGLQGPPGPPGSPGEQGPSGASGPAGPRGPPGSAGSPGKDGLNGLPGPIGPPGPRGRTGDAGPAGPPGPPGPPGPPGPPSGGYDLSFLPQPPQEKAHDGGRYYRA
Chain of FITC-labeled bovine type I Collagen (Chondrex 4001) (P02465 80-1117, chain 2 of 2): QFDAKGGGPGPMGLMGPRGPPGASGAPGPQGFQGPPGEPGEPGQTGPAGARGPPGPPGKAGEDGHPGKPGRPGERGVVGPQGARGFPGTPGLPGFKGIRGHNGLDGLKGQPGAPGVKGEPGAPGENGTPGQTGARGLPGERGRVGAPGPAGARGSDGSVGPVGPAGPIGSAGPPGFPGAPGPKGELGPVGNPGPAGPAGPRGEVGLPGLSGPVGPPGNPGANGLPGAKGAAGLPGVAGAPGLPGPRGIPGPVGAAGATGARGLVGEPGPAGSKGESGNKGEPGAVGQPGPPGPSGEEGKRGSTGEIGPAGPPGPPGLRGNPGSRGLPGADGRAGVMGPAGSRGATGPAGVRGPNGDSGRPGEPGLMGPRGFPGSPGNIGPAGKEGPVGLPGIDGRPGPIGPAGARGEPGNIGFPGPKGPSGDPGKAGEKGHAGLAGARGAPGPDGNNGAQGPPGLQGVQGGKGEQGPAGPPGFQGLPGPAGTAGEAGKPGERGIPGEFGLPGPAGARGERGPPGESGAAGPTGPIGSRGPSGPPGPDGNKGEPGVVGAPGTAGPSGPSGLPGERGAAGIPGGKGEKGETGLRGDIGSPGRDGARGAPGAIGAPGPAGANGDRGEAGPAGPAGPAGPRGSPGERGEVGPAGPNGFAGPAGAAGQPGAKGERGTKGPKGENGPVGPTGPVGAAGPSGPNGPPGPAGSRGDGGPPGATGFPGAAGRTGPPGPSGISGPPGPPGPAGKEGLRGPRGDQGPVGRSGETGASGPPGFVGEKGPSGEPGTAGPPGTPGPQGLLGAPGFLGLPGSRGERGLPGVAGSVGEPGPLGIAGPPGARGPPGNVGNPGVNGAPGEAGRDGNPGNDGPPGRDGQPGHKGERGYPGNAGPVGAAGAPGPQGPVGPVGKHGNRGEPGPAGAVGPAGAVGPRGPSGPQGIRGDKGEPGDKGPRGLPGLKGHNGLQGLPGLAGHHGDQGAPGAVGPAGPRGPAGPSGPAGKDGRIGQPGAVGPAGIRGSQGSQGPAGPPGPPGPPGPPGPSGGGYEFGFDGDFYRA

- FITC-col internalization assay, flow cytometry of FITC-col trapped inside cells (Fig. 4e): 5 fold
- soluble FITC released into the culture supernatant from a FITC-Col gel, 48 h (Fig. 4d): ~3 fold
B1: TEM8 on TEM8 overexpressing CHO cells (CHO-TEM8), wild type (receptor)
chain: not shown
